Patent publication US8624002B2, “Prostaglandin E2 binding proteins and uses thereof” (AbbVie, Inc., priority 2008, dated 2014)
Where a chain is given by its changes, count along the chain named. Like-named read-outs stand apart in the source and are kept apart here.

B1: 2B5-8.0: recombinant anti-PGE2 antibody from solved 2B5 sequence; VH SEQ ID NO 42, VL SEQ ID NO 43 (antibody, V domains shown)
VH: QVQLQQSGPELVRPGSSVKISCKASGYTFTKYWLGWVKQRPGHGLEWIGDIYPGYDYTHYNEKFKDKATLTVDTSSSTAYMQLSSLTSEDSAIYYCARSDGSSTYWGQGTLVTVSA
VL: DVLMTQTPLSLPVSLGDQASISCTSSQNIVHSNGNTYLEWYLQRPGQSPKLLIYKVSNRFSGVPDRFSGSGSGTVFTLKISRVEAEDLGVYYCFQVSHVPYTFGGGTKLEIKR
B2: Hu2B5.1: humanized 2B5-8.0; VH SEQ ID NO 60, VL SEQ ID NO 61 (antibody, V domains shown)
VH: EVQLVQSGAEVKKPGASVKVSCKASGYTFTKYWLGWVRQAPGQGLEWIGDIYPGYDYTHYNEKFKDRATLTVDTSTSTAYMELRSLRSDDTAVYYCARSDGSSTYWGQGTLVTVSS
VL: B1 VL with L3V, S14T, L15P, D17E, Q18P, R44K, K50Q, V75D, L88V, L109V
B3: Hu2B5.2: humanized 2B5-8.0; VH SEQ ID NO 62, VL SEQ ID NO 63 (antibody, V domains shown)
VH: B2 VH with R84S
VL: B1 VL with L3V, S14T, L15P, D17E, Q18P, R44K, K50Q, V75D, L88V, L109V
B4: Hu2B5.8: humanized 2B5-8.0; VH SEQ ID NO 74, VL SEQ ID NO 75 (antibody, V domains shown)
VH: B2 VH with I48M, A68V, V72T, R84S
VL: B1 VL with S14T, L15P, D17E, Q18P, R44K, K50Q, V75D, L88V, L109V
B5: Hu2B5.6: humanized 2B5-8.0; VH SEQ ID NO 70, VL SEQ ID NO 71 (antibody, V domains shown)
VH: B2 VH with I48M, A68V, V72T, R84S
VL: B1 VL with L3V, S14T, L15P, D17E, Q18P, R44K, K50Q, V75D, L88V, L109V
B6: Hu2B5.4: humanized 2B5-8.0; VH SEQ ID NO 66, VL SEQ ID NO 67 (antibody, V domains shown)
VH: B2 VH with R84S
VL: B1 VL with S14T, L15P, D17E, Q18P, R44K, K50Q, V75D, L88V, L109V
B7: Hu2B5.3: humanized 2B5-8.0; VH SEQ ID NO 64, VL SEQ ID NO 65 (antibody, V domains shown)
VH: B2 VH
VL: B1 VL with S14T, L15P, D17E, Q18P, R44K, K50Q, V75D, L88V, L109V

Tests used:
[1] = Biotin-PGE2 ELISA (PGE2-biotinamide binding to captured IgG)
Experimental: Enzyme linked immunosorbent assays to screen for antibodies that bind prostaglandin E2 were performed according to at least one of the two following methods.
ELISA plates (Costar 3369, Corning, N.Y.) were coated with 50 μl of anti-host Fc IgG (Sigma, St. Louis, Mo.) at 2 μg/ml in PBS (Invitrogen Carlsbad, Calif.). Following an overnight incubation at 4° C., washed with PBS and the plate was blocked with 200 μl Superblock (Pierce #37535, Rockford, Ill.). The IgG containing samples were diluted to 1 μg/ml in Assay Buffer (10% Superblock in PBS containing 0.05% Surfactamps (Pierce #37535, Rockford, Ill.) and 50 μl/well added to each well and incubated for 1 hour at room temperature. Plates were washed four times with Tween-Tris Buffered Solution (TTBS). […] The titration curve samples were added to each IgG sample at 50 μl/well and incubated for 1 hour at room temperature. The plates were washed as previously described and 50 μl of 1:5000 dilution of streptavidin polyhrp40 (Fitzgerald Industries, Concord, Mass.) in Assay Buffer was added to each well and incubated for 45 minutes at room temperature. A final wash step was performed and the plates were developed using a single step TMB system (Sigma #T8665, St. Louis, Mo.) and 100 μl/well 2N H2SO4. Plates were read at 450 nm on a Molecular Devices Spectramax plate reader (Sunnyvale, Calif.). EC50 was determined using GraphPad Prism 5 (GraphPad Software, La Jolla, Calif.).

[2] = system: PGE2 induced Ca++ influx in HEK293 Gα16 cells stably transfected with human EP4 receptor; assay: EP4 bioassay: PGE2 induced Ca++ flux (FLIPR); format: cell-based
Experimental: The ability of anti-PGE2 antibody to inhibit cellular response of PGE2 in vitro was determined in a Ca^++ flux assay in HEK293 Gα16 cells (Abbott Bioresearch Center, Worcester, Mass.) stably transfected with human EP4 receptor. In brief, an expression plasmid encoding one of the four human PGE2 receptors, EP4, and an expression plasmid encoding Gα16, were co-transfected into human embryonic kidney cell line 293 cells (ATCC# CRL1573, Manassas, Va.). The stable clones co-expressing both human EP4 and Gα16 protein were selected using standard methods (Joseph Sambrook and David W. Russell. Molecular Cloning: A Laboratory Manual Publisher. Published by Cold Spring Harbor Laboratory Press, 2001) and used for the EP4 bioassay. The HEK293 Gα16 cells were plated in black/clear poly-D-lysine plates (Corning #3667, Corning, N.Y.) and incubated with a Ca^++-sensitive dye (Molecular Devices, Sunnyvale, Calif.) for 90 minutes. Stock PGE2 (in 200 proof ethanol) was diluted with FLIPR buffer [containing 1×HBSS (Invitrogen Carlsbad, Calif.), 20 mM HEPES (Invitrogen Carlsbad, Calif.), 0.1% BSA (Sigma, St. Louis, Mo.) and 2.5 mM Probenecid (Sigma, St. Louis, Mo.)]. Anti-PGE2 antibodies or isotype matched control antibodies were also pre-diluted in FLIPR buffer. 25 μl of PGE2 or pre-incubated PGE2/antibody mixture was added to the wells pre-plated with cells. The dose response of PGE2 was determined on a serial titration of PGE2 and using FLIPR1 or Tetra (Molecular Devices, Sunnyvale, Calif.) and EC50 was determined using GraphPad Prism 5 (GraphPad Software, La Jolla, Calif.). […] Ca^++ flux was monitored using FLIPR1 and data was analyzed using GraphPad Prism 5 (GraphPad Software, La Jolla, Calif.).

[3] = Capillary zone electrophoresis; format: physicochemical; settings: running buffer pH 5.5; compared with Hu2B5.2, Hu2B5.4, Hu2B5.6, Hu2B5.8
Text: Capillary zone electrophoresis is a capillary electrophoresis method in which the capillary is filled with buffer and the separation mechanism is based on differences in electrophoretic mobility of the analyte through the buffer. The electrophoretic mobility of a molecule is related to the charge-to-size ratio. A Beckman-Coulter ProteomeLab PA 800 (Beckman Coulter, Fullerton, Calif.) was used for the CZE analysis. A neutral capillary (eCAP neutral, 56 cm total length, 50 μm I. D. Beckman-Coulter, P/N 477441, Fullerton, Calif.) was used. The method used a 30.2 cm capillary with a detection window 20.2 cm from the sample introduction inlet. The running buffer was 100 mM EACA (6-Aminocaproic acid, Sigma A7824-100 G, St. Louis, Mo.) with 0.1% MC (from 1% Methylcellulose solution, Convergent Bioscience, cat# 101876, Toronto, ON, Canada), pH 5.5.

[4] = PGE2 25 pm, read-out: IC50 (pM) @ PGE2 25 pm Cellular Potency in EP4 assay

Molecule	IC50 [2, 4] [pM]	further results
B1		EC50 [1]: 1.03 nM; ability to bind PGE2 in ELISA [1]: potently bound to PGE2; inhibition of PGE2 induced calcium influx in EP4 bioassay [2]: potently inhibited; IC50 ([2]; read-out: PGE2 Neutralization Potency in Cellular EP4 assay (IC50)): 44 pM
B2	55	migration in capillary zone electrophoresis [3]: migrated more basic
B3	55	
B4	78	
B5	52	
B6	40	
B7	47	migration in capillary zone electrophoresis [3]: migrated more basic
